Tests used:
Format in all cases: biochemical
Pfu DNA polymerase [1] = target: T1, Pfu DNA polymerase (Pyrococcus furiosus, UniProt P61875); assay: 0.9 kb α1-antitrypsin PCR with unrelated dU-containing or control oligonucleotide; settings: 0.8 pmole of dU containing primer; 7 ng PEF
T1 sequence (P61875 1-775): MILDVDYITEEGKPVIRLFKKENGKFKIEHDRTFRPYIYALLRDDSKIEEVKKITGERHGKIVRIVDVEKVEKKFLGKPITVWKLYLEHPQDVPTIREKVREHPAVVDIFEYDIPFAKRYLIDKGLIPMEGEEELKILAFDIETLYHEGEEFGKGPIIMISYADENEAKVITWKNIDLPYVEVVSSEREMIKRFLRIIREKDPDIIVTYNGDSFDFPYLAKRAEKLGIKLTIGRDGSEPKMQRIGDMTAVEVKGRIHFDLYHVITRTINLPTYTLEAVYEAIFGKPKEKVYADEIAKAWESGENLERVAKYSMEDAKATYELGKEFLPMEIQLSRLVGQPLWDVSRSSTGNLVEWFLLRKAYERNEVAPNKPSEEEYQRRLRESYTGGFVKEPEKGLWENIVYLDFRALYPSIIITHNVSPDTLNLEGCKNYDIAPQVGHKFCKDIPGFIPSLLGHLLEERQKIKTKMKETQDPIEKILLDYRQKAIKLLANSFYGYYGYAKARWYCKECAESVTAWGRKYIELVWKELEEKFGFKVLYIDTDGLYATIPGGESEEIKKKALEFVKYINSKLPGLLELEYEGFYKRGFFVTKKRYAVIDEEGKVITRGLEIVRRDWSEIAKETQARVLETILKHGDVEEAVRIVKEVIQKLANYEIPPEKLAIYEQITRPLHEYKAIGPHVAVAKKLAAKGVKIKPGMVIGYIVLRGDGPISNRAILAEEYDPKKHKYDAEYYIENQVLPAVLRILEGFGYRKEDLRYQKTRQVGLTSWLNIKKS

[2] = Pi detection after reaction with dUTP (method of Heinonen and Lahti); settings: 900 or 1800 ng PEF, 5 mM dUTP, 1 hour at 72° C.
Description: We tested whether inorganic pyrophosphate (PPi) or inorganic phosphate (Pi) was generated during the PEF-catalyzed conversion of dUTP to dUMP (FIG. 16). To assess whether Pi was produced, 900 or 1800 ng of PEF was incubated in the presence of 5 mM dUTP in 1× cloned Pfu polymerase buffer for 1 hour at 72° C. The reaction mixture was subsequently analyzed for the presence of Pi using the method of Heinonen and Lahti (Heinonen; J. K. and Lahti, R. J. (1981) Anal. Biochem. 113: 313-317). […] One hundred percent (100%) conversion corresponds to the production of 500 nmol of Pi, if Pi is a product of the reaction. […] The assay for Pi was sensitive enough to detect as little as about 50 nmoles of Pi.

[3] = PPi production from dUTP (dUTPase activity), Sigma Enzymatic Determination of Pyrophosphate kit
Description: In experiments to investigate whether PPi is formed during the reaction, 900 or 1800 ng of PEF was incubated with 10 mM dUTP in 1× cloned Pfu polymerase buffer for 1 hour at 72° C. The presence of PPi in the reaction mixture was then quantified using Sigma's Enzymatic Determination of Pyrophosphate kit (Sigma Product No. P7275). The kit utilizes a coupled enzyme system whereby two moles of NADH are oxidized to NAD^+ for each mole of PPi present in the reaction mixture. The oxidation of NADH is monitored spectrophotometrically at 340 nm. […] The reactions that contained 1800 ng of PEF produced twice as much PPi as those that contained 900 ng of PEF.
The temperature optimum (Topt) for the generation of PPi from dUTP was measured by incubating mixtures of dUTP and native PEF at temperatures ranging from 73° C. to 99° C. PPi production by native PEF increased steadily over this temperature range and was highest at 99° C. […]
The enzyme activity of three different preparations of S200-purified native PEF was measured at 85° C. Protein concentrations were determined by both Bradford and by amino acid analysis. Shown below is a summary of the enzyme activity and specific activity (protein concentration determined by Bradford or AAA as indicated) of S200-purified native PEF. […]

Pfu DNA polymerase [4] = target: T1, Pfu DNA polymerase; assay: 0.9 kb α1-antitrypsin PCR in absence or presence of dUTP
Description: A relatively small (0.9 kb) fragment of the human α1-antitrypsin gene was amplified in the absence or presence of dUTP. PCR reaction mixtures contained the following (in a 100 μl volume): 1× Cloned Pfu polymerase buffer; 200 μM each, dCTP, dGTP, dATP; 200 ng oligo F91-23 (100 ng/μl); 200 ng oligo R980-23 (100 ng/μl); 125 ng Human genomic DNA; 2.5 units Pfu DNA polymerase; 200 μM total of (dTTP and dUTP) or (dTTP+PEF generated dUMP).
PCR cycling was carried out as follows: 95° C. for 1 minute (1 cycle); 95° C. for 1 minute—58° C. for 1 minute—72° C. for 2 minutes (30 cycles).
Seven ng of PEF can reverse the inhibition caused by as much as 20 μM dUTP (data not shown). The preferred amount of PEF or P45 used in a particular reaction can be optimized according to the principles provided here or by methods for quantifying amplification reactions known in the art.

B1: PEF: polymerase enhancing factor complex purified from Pyrococcus furiosus; predominant components P50 and P45 (protein)
chain 1: MLHHVKLIYATKSRKLVGKKIVXXXPGSIAALDVKACEGLIRHGAEVHAVMSEAATKIIHPYAWNLPTGNPVITEITGFIEHVELAGEHENKADLILVCPATANTISKIACGIDDTPVTTVVTTAFPHIPIMIAPAMHETMYRHPIVRENIERLKKLGVEFIGPRIEEGRAKVASIDEIVYRVIKKLHKKTLEGKRVLVTAGATREYIDPIRFITNASSGKMGVALAEEADFRGAVTLIRTKGSVKAFRIRKIKLKVETVEEMLSAIENELRSKKYDVVIMAAAVSDFRPKIKAEGKIKSGRSITIELVPXNPKIIDRIKEIQPNVFLVGFKAETSKEKLIEEGKRQIERAKADLVVGNTLEAFGSEENQVVLIGRDFTKELPKMKKRELAERIWDEIEKXLS
chain 2: MLLPDWKIRKEILIEPFSEESLQPAGYDLRVGREAFVKGKLIDVEKEGKVVIPPREYALILTLERIKLPDDVMGDMKIRSSLAREGVIGSFAWVDPGWDGNLTLMLYNASNEPVELRYGERFVQIAFIRLEGPARNPYRGNYQGSTRLAFSKRKKL
modifications: not fully specified; X: residue not identified in the source
notes: polymerase enhancing factor complex purified from Pyrococcus furiosus; predominant components P50 and P45
- amplification in reactions containing dU oligo with PEF (Pfu DNA polymerase [1]): a small amount of amplification product is observed
- Pi formed during reaction with dUTP [2]: no Pi was detected
- PPi production from dUTP (in words) [3]: clearly established
- temperature optimum (Topt) for the generation of PPi from dUTP ([3]; tested from 73° C. to 99° C.): > 99 °C
- prevention of dUTP inhibition (Pfu DNA polymerase [4]; added to PCR reactions containing dUTP): completely prevented
- dUTP concentration whose inhibition is reversed (Pfu DNA polymerase [4]; seven ng of PEF, as much as, data not shown): 20 µM

Source: patent US7943358B2, “Polymerase enhancing factor (PEF) extracts, PEF protein complexes, isolated PEF protein, and methods for purifying and identifying” (Agilent Technologies, Inc., priority 1997, dated 2011)
